The source of these data is patent US12545899B2, “Luciferase enzymes for use with thermostable luciferins in bioluminescent assays” (Promega Corporation, priority 2018, dated 2026).

Data set [1] can be described thus: Differential scanning fluorimetry (DSF) analysis. Type of data set: physicochemical. The following applies: Table 7B. The method, then:
To conduct the experiment, Sypro Orange (5000×) was diluted in water to 3× and combined with enzymes stored in 50 mM HEPES pH 7.5, 100 mM NaCl, 2 mM EDTA to a final concentration of 5×. Fluorescence was read at 60 second intervals as the reactions were heated at 1° C. per minute from 30-95° C. The change in fluorescence at each minute was calculated and plotted for each temperature in the range.
The luciferase enzyme variants generated were also evaluated using DSF analysis as shown in the representative results provided in Tables 7A and 7B above. To conduct the experiments, Sypro Orange (5000×) was diluted in water to 3× and combined with enzymes stored in 20 mM HEPES pH 7.5, 200 mM NaCl, 1 mM EDTA to a final concentration of 5×. Fluorescence was read at 60 second intervals as the reactions were heated at 1° C. per minute from 30-95° C. The change in fluorescence at each minute was calculated and plotted for each temperature in the range.
In general terms: In DSF a fluorescence change marks the thermal transition of the protein.

Data set [2] can be described thus: Brightness of additional luciferase enzyme variants with CS0333. Type of data set: biochemical. The following applies: Table 7B; for luminescence CS0333 BG / luminescence CS0333 DR: 1 mM CS0333; for luminescence CS0333 BG / Fold improvement over ATG3707, CS0333 BG: Bright-Glo buffer; for luminescence CS0333 DR / Fold improvement over ATG3707, CS0333 DR: Detection Reagent buffer. The method, then:
(§1) Additional luciferase enzyme variants were generated and evaluated for their stability and activity. To evaluate the additional luciferase enzyme variants, 0.005 mg/ml luciferase enzyme variant was mixed with 1 mM ATP+1 mM substrate in either Bright-Glo™ (BG) or Detection Reagent (DR) buffers. […] (Table 7A is colored according to their relative luminescence values within each column across a red to green color spectrum with the lowest values colored red and the highest values colored green.)

The nature of data set [3]: Brightness of additional luciferase enzyme variants with CS0280. Type of data set: biochemical. The settings on record: Table 7B; for luminescence CS0280 BG / luminescence CS0280 DR: 1 mM CS0280; for luminescence CS0280 BG / Fold improvement over ATG3707, CS0280 BG: Bright-Glo buffer; for luminescence CS0280 DR / Fold improvement over ATG3707, CS0280 DR: Detection Reagent buffer. On the procedure: as §1

B1: C9644H7: SEQ ID NO: 97; H244W+T344A+I396K+S193A+N228D+L305F+S306P+I109V+C38R+A316W+T342S+V348I (protein)
chain: MADKNILYGPEPFYPLEDGTAGEQMFDALSRYAAIPGRIALTNAHTKENVLYEEFLKLSCRLAESFKKYGLKQNDTIAVCSENSLQFFLPVIASLYLGIIVAPVNDKYVERELIHSLGIVKPRIVFCSKNTFQKVLNVKSKLKSIETIIILDLNEDLGGYQCLNNFISQNSDSNLDVKKFKPYSFNRDDQVAAIMFSSGTTGLPNGVMLTHKNIVARFSIAKDPTFGDAINPTSAILTVIPFHWGFGMMTTLGYFTCGFRVVLMHTFEEKLFLQSLQDYKVESTLLVPTLMAFLAKSALVEKYDFPHLKEIASGGWPLSKEIGEMVKKRFKLNFVRQGYGLSEATSAILITPKGDAKPGSTGKIVPLHAVKVVDPTTGKILGPNEPGELYFKGPMKMKGYYNNEEATKAIIDNDGWLRSGDIAYYDNDGHFYIVDRLKSLIKYKGYQVAPAEIEGILLQHPYIVDAGVTGIPDEAAGELPAAGVVVQTGKYLNEQIVQDYVASQVSTAKWLRGGVKFLDEIPKGSTGKIDRKVLRQMLEKHTNGHHHHHHHH
Regarding B1, in data set [1], the “DSF Tm (° C.)” value is 59 °C. Further, in data set [2], the “luminescence CS0333 BG” value is 15,784,700; the “luminescence CS0333 DR” value is 11,887,900; the “Fold improvement over ATG3707, CS0333 BG” value was determined as 2.97; the “Fold improvement over ATG3707, CS0333 DR” value is recorded as 2.79. In data set [3], the “luminescence CS0280 BG” value was 1,642,120; the “luminescence CS0280 DR” value is recorded as 83,763; the “Fold improvement over ATG3707, CS0280 BG” value came to 2.07; the “Fold improvement over ATG3707, CS0280 DR” value stood at 2.87.

B2: C9679H10: SEQ ID NO: 99; H244W+T344A+I396K+S193A+N228D+L305F+S306P+I109V+A316W+T344I (protein)
chain: MADKNILYGPEPFYPLEDGTAGEQMFDALSRYAAIPGRIALTNAHTKENVLYEEILKLSCRLAESFKKYGLKQNDTIAVCSENSLQFFLPVIASLYLGIIVAPVNDKYVERELIHSLGIVKPRIVFCSKNTFQKVLNVKSKLKSIETIIILDLNEDLGGYQCLNNFISQNSDSNLDVKKFKPYSFNRDDQVAAIMFSSGTTGLPKGVMLTHKNIVARFSIAKDPTFGDAINPTSAILTVIPFHWGFGMMTTLGYFTCGFRVVLMHTFEEKLFLQSLQDYKVESTLLVPTLMAFLAKSALVEKYDFPHLKEIASGGWPLSKEIGEMVKKRFKLNFVRQGYGLSEATSAILITPKGDAKPGSTGKIVPLHAVKVVDPTTGKILGPNEPGELYFKGPMKMKGYYNNEEATKAIIDNDGWLRSGDIAYYDNDGHFYIVDRLKSLIKYKGYQVAPAEIEGILLQHPYIVDAGVTGIPDEAAGELPAAGVVVQTGKYLNEQIVQDYVASQVSTAKWLRGGVKFLDEIPKGSTGKIDRKVLRQMLEKHTNGHHHHHHHH
For the molecule B2, the “DSF Tm (° C.)” value in data set [1] worked out at 65 °C. In addition, in data set [2], the “luminescence CS0333 BG” value was 12,508,600; the “luminescence CS0333 DR” value is recorded as 11,647,400; the “Fold improvement over ATG3707, CS0333 BG” value was 2.35; the “Fold improvement over ATG3707, CS0333 DR” value was 2.73. For the same molecule, in data set [3], the “luminescence CS0280 BG” value is 7,349,470; the “luminescence CS0280 DR” value is recorded as 984,923; the “Fold improvement over ATG3707, CS0280 BG” value is on record as 9.26; the “Fold improvement over ATG3707, CS0280 DR” value is given as 33.69.

B3: C9671D10: SEQ ID NO: 100; H244W+T344A+I396K+S193A+N228D+L305F+S306P+I109V+C38R+F55I+Y108F+A316W+Y339M+T344I (protein)
chain: MADKNILYGPEPFYPLEDGTAGEQMFDALSRYAAIPGRIALTNAHTKENVLYEEILKLSCRLAESFKKYGLKQNDTIAVCSENSLQFFLPVIASLYLGIIVAPVNDKYVERELIHSLGIVKPRIVFCSKNTFQKVLNVKSKLKSIETIIILDLNEDLGGYQCLNNFISQNSDSNLDVKKFKPYSFNRDDQVAAIMFSSGTTGLPKGVMLTHKNIVARFSIAKDPTFGDAINPTSAILTVIPFHWGFGMMTTLGYFTCGFRVVLMHTFEEKLFLQSLQDYKVESTLLVPTLMAFLAKSALVEKYDFPHLKEIASGGWPLSKEIGEMVKKRFKLNFVRQGYGLSEATSAILITPKGDAKPGSTGKIVPLHAVKVVDPTTGKILGPNEPGELYFKGPMKMKGYYNNEEATKAIIDNDGWLRSGDIAYYDNDGHFYIVDRLKSLIKYKGYQVAPAEIEGILLQHPYIVDAGVTGIPDEAAGELPAAGVVVQTGKYLNEQIVQDYVASQVSTAKWLRGGVKFLDEIPKGSTGKIDRKVLRQMLEKHTNGHHHHHHHH
With B3, the “DSF Tm (° C.)” value in data set [1] came to 65 °C. Also, in data set [2], the “luminescence CS0333 BG” value is listed as 8,464,030; the “luminescence CS0333 DR” value is 7,772,660; the “Fold improvement over ATG3707, CS0333 BG” value worked out at 1.59; the “Fold improvement over ATG3707, CS0333 DR” value stood at 1.82. Further, in data set [3], the “luminescence CS0280 BG” value is given as 11,877,500; the “luminescence CS0280 DR” value is 1,439,510; the “Fold improvement over ATG3707, CS0280 BG” value turned out to be 14.97; the “Fold improvement over ATG3707, CS0280 DR” value amounted to 49.24.

B4: C8523E12: SEQ ID NO: 94; H244W+T344A+I396K+S193A+N228D+L305F+S306P+I109V+C38R+F55I+A316W+T342S+V348I (protein)
chain: MADKNILYGPEPFYPLEDGTAGEQMFDALSRYAAIPGCIALTNAHTKENVLYEEFLKLSCRLAESFKKYGLKQNDTIAVCSENSLQFFLPVIASLYLGIIVAPVNDKYVERELIHSLGIVQPRIVFCSKNTFQKVLNVKSKLKSIETIIILDLNEDLGGYQCLNNFISQNSDSNLDVKKFKPYSFNRDDQVAAIMFSSGTTGLPKGVMLTHKNIVARFSIAKDPTFGDAINPTSAILTVIPFHWGFGMMTTLGYFTCGFRAVLMHTFEEKLFLQSLQDYKVESTLLIPTLMAFLAKSALVEKYDFPHLKEIASGGAPLSKEIGEMVKKRFKLNFVRQGYGLTEATSAVLITPKGDAKPGSTGKIVPLHAVKVVDPTTGKILGPNEPGELYFKGPMKMKGYYNNEEATKAIIDNDGWLRSGDIAYYDNDGHFYIVDRLKSLIKYKGYQVAPAEIEGILLQHPYIVDAGVTGIPDEAAGELPAAGVVVQTGKYLNEQIVQDYVASQVSTAKWLRGGVKFLDEIPKGSTGKIDRKVLRQMLEKHTNGHHHHHHHH
As to B4, the “DSF Tm (° C.)” value in data set [1] is 67 °C. For the same molecule, in data set [2], the “luminescence CS0333 BG” value is 20,331,700; the “luminescence CS0333 DR” value is on record as 15,418,100; the “Fold improvement over ATG3707, CS0333 BG” value is on record as 3.82; the “Fold improvement over ATG3707, CS0333 DR” value is on record as 3.62. Also, in data set [3], the “luminescence CS0280 BG” value was 1,996,020; the “luminescence CS0280 DR” value is on record as 213,031; the “Fold improvement over ATG3707, CS0280 BG” value turned out to be 2.52; the “Fold improvement over ATG3707, CS0280 DR” value came to 7.29.

B5: C9649G7: SEQ ID NO: 98; H244W+T344A+I396K+S193A+N228D+L305F+S306P+I109V+C38R+F55I+K121Q+A316W+Y339M+T344I+V348I (protein)
chain: MADKNILYGPEPFYPLEDGTAGEQMFDALSRYAAIPGRIALTNAHTKENVLYEEILKLSCRLAESFKKYGLKQNDTIAVCSENSLQFFLPVIASLYLGIIVAPVNDKYVERELIHSLGIVKPRIVFCSKNTFQKVLNVKSKLKSIETIIILDLNEDLGGYQCLNNFISQNSDSNLDVKKFKPYSFNRDDQVAAIMFSSGTTGLPKGVMLTHKNIVARFSIAKDPTFGDAINPTSAILTVIPFHWGFGMMTTLGYFTCGFRVVLMHTFEEKLFLQSLQDYKVESTLLVPTLMAFLAKSALVEKYDFPHLKEIASGGWPLSKEIGEMVKKRFKLNFVRQGYGLSEATSAILITPKGDAKPGSTGKIVPLHAVKVVDPTTGKILGPNEPGELYFKGPMKMKGYYNNEEATKAIIDNDGWLRSGDIAYYDNDGHFYIVDRLKSLIKYKGYQVAPAEIEGILLQHPYIVDAGVTGIPDEAAGELPAAGVVVQTGKYLNEQIVQDYVASQVSTAKWLRGGVKFLDEIPKGSTGKIDRKVLRQMLEKHTNGHHHHHHHH
For the molecule B5, in data set [1], the “DSF Tm (° C.)” value was found to be 51 °C. In addition, in data set [2], the “luminescence CS0333 BG” value is on record as 13,322,000; the “luminescence CS0333 DR” value was 11,733,600; the “Fold improvement over ATG3707, CS0333 BG” value is reported as 2.50; the “Fold improvement over ATG3707, CS0333 DR” value is listed as 2.75. In data set [3], the “luminescence CS0280 BG” value is recorded as 7,501,350; the “luminescence CS0280 DR” value is listed as 891,010; the “Fold improvement over ATG3707, CS0280 BG” value was determined as 9.46; the “Fold improvement over ATG3707, CS0280 DR” value is recorded as 30.48.
